Reference: patent publication US20050059107A1

Columns and labels:
[1] = molecular target: HLA-DP4 molecule DP402 (DPA1*0103/DPB1*0402) (human) (UniProt P20036); test: competition ELISA; capped, '>10 000' in Table VII
[2] = molecular target: HLA-DP4 molecule DP401 (DPA1*0103/DPB1*0401) (human) (UniProt P20036); test: competition ELISA; capped, '>10 000' in Table VII
[3] = molecular target: HLA-DP4 molecule DP402 (DPA1*0103/DPB1*0402) (human) (UniProt P20036); test: competition ELISA, tracer bUNK1
[4] = molecular target: HLA-DP4 molecule DP401 (DPA1*0103/DPB1*0401) (human) (UniProt P20036); test: competition ELISA, tracer bUNK1
[5] = molecular target: HLA-DP4 molecule DP401 (DPA1*0103/DPB1*0401) (human) (UniProt P20036); test: competition ELISA
[6] = molecular target: HLA-DP4 molecule DP402 (DPA1*0103/DPB1*0402) (human) (UniProt P20036); test: competition ELISA

Substance	IC50 [1] [µM]	IC50 [2] [µM]	IC50 [3] [µM]	IC50 [4] [µM]	IC50 [5] [µM]	relative binding activity vs UNK1 (IC50 ratio) [3] [fold]	IC50 [6] [µM]
Api m1 69-86 (peptide)	> 10	10	> 10	> 10			
Api m1 73-90 (peptide)	> 10	10	> 10	> 10			
Api m1 81-98 (peptide)				2.25	2.25		
Api m1 65-82 (peptide)			6.5	50	50	371	6.5
